Measurements published in article PMC7103410.

Target: M116, the C-terminal 116 amino acids of SARS-CoV membrane (M) protein (recombinant cytoplasmic region) (SARS-CoV)
Assay: SPR

## N peptide 101–115
  Kd: 730 nM
